Where a chain is given by its changes, count along the chain named. Names and notes keep the numbering of the source.
T1: IL-10 receptors R1 and R2 on HEK-Blue IL-10 reporter cells (UniProt Q13651 22-578; Q08334 20-325, limits assumed)
T1 sequence (looked up) 1: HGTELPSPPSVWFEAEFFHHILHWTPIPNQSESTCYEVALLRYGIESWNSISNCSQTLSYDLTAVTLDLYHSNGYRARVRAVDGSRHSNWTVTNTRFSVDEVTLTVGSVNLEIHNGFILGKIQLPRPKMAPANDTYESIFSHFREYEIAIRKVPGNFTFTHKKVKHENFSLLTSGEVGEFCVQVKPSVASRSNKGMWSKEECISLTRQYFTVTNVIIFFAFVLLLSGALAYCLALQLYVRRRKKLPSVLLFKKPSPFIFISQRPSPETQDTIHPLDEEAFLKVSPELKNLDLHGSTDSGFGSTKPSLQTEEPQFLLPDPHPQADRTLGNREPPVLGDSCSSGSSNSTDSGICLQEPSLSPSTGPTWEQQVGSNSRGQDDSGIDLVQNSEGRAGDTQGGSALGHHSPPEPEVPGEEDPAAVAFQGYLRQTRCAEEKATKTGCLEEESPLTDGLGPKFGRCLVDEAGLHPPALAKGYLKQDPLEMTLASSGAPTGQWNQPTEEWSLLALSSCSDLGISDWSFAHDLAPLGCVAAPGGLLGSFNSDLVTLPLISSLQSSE
T1 sequence (looked up) 2: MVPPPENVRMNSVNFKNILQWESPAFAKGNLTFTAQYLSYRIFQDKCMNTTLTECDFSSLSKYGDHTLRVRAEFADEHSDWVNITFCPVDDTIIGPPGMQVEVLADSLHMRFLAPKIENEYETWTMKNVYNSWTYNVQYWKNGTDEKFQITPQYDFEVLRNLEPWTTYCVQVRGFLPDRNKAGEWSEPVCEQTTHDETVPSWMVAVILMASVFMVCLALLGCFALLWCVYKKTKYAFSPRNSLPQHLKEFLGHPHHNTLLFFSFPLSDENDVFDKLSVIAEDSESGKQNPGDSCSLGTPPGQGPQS

T2: IL-22 receptors R1 and R2 on HEK-Blue IL-22 reporter cells (UniProt Q8N6P7 16-574; Q08334 20-325, limits assumed)
T2 sequence (looked up) 1: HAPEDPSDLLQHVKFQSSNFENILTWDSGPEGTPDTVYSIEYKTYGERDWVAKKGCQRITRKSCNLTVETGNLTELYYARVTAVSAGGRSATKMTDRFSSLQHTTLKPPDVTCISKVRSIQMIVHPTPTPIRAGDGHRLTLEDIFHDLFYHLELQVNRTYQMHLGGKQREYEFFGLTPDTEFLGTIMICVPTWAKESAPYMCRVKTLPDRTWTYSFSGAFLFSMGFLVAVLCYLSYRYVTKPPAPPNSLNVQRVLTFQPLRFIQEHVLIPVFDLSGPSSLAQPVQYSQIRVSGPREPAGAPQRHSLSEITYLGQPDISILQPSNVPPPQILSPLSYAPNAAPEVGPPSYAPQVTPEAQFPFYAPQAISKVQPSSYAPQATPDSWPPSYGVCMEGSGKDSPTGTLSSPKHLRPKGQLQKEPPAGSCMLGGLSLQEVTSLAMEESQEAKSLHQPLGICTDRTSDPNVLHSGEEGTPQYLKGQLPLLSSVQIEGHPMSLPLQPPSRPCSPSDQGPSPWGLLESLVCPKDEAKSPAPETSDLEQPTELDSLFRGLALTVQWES
T2 sequence (looked up) 2: T1 sequence (looked up) 2

B1: ORK2-011 (foldikine-2, two 8 aa InterLinkers GGGSGGGG) (ligand)
chain: LRPRDLISNINVIVLELKGSETTFMCEYADETATIVEFLNRWITFCQSIISTLTGGGSGGGGTKKTQLQLEHLLLDLQMILNGINNYKNPKLTRMLTFKFYMPKKATELKHLQCLEEELKPLEEVLNLAQSKNFHLRPRDLISNINVIVLELKGSETTFMCEYADETATIVEFLNRWITFCQSIISTLTGGGSGGGGTKKTQLQLEHLLLDLQMILNGINNYKNPKLTRMLTFKFYMPKKATELKHLQCLEEELKPLEEVLNLAQS
B2: ORK2-007 (foldikine-2, two 7 aa InterLinkers GPPPPPG) (ligand)
chain: LRPRDLISNINVIVLELKGSETTFMCEYADETATIVEFLNRWITFCQSIISTLTGPPPPPGTKKTQLQLEHLLLDLQMILNGINNYKNPKLTRMLTFKFYMPKKATELKHLQCLEEELKPLEEVLNLAQSKNFHLRPRDLISNINVIVLELKGSETTFMCEYADETATIVEFLNRWITFCQSIISTLTGPPPPPGTKKTQLQLEHLLLDLQMILNGINNYKNPKLTRMLTFKFYMPKKATELKHLQCLEEELKPLEEVLNLAQS
B3: ORK2-010 (foldikine-2, two 7 aa InterLinkers GGGSGGG) (ligand)
chain: B2 chain with P56G, P57G, P58S, P59G, P60G, P190G, P191G, P192S, P193G, P194G
B4: ORK2-009 (foldikine-2, two 6 aa InterLinkers GGGSGG) (ligand)
chain: LRPRDLISNINVIVLELKGSETTFMCEYADETATIVEFLNRWITFCQSIISTLTGGGSGGTKKTQLQLEHLLLDLQMILNGINNYKNPKLTRMLTFKFYMPKKATELKHLQCLEEELKPLEEVLNLAQSKNFHLRPRDLISNINVIVLELKGSETTFMCEYADETATIVEFLNRWITFCQSIISTLTGGGSGGTKKTQLQLEHLLLDLQMILNGINNYKNPKLTRMLTFKFYMPKKATELKHLQCLEEELKPLEEVLNLAQS
B5: ORK2-008 (foldikine-2, two 8 aa InterLinkers GPPPPPPG) (ligand)
chain: LRPRDLISNINVIVLELKGSETTFMCEYADETATIVEFLNRWITFCQSIISTLTGPPPPPPGTKKTQLQLEHLLLDLQMILNGINNYKNPKLTRMLTFKFYMPKKATELKHLQCLEEELKPLEEVLNLAQSKNFHLRPRDLISNINVIVLELKGSETTFMCEYADETATIVEFLNRWITFCQSIISTLTGPPPPPPGTKKTQLQLEHLLLDLQMILNGINNYKNPKLTRMLTFKFYMPKKATELKHLQCLEEELKPLEEVLNLAQS
B6: MutM (engineered monomeric IL-10 with an inserted polyGly loop between Asn116 and Lys117) (ligand)
chain: MSPGQGTQSENSCTHFPGNLPNMLRDLRDAFSRVKTFFQMKDQLDNLLLKESLLEDFKGYLGCQALSEMIQFYLEEVMPQAENQDPDIKAHVNSLGENLKTLRLRLRRCHRFLPCENGGGSGGKSKAVEQVKNAFNKLQEKGIYKAMSEFDIFINYIEAYMTMKIRN
B7: Mut3 (IL-10 D28E, S31K, N45S, T155M, N18I, N92I, K99N) (ligand)
chain: MSPGQGTQSENSCTHFPGILPNMLRDLREAFKRVKTFFQMKDQLDSLLLKESLLEDFKGYLGCQALSEMIQFYLEEVMPQAENQDPDIKAHVISLGENLNTLRLRLRRCHRFLPCENKSKAVEQVKNAFNKLQEKGIYKAMSEFDIFINYIEAYMMMKIRN
B8: Mut1 (IL-10 D28E, S31R, N45S, T155M) (ligand)
chain: B7 chain with I19N, K32R, I93N, N100K
B9: Mut2 (IL-10 D28E, S31K, N45S, T155M) (ligand)
chain: B7 chain with I19N, I93N, N100K
B10: MutSC2 (MutSC1 with the Mut3 point mutations) (ligand)
chain: MTQSENSCTHFPGILPNMLRDLREAFKRVKTFFQMKDQLDSLLLKESLLEDFKGYLGCQALSEMIQFYLEEVMPQAENQDPDIKAHVISLGENLNTLRLRLRRCHRFLPCENKSKAVEQVKNAFNKLQEKGIYKAMSEFDIFINYIEAYMMMNNGGLDYLPNMLRDLREAFKRVKTFFQMKDQLDSLLLKESLLEDFKGYLGCQALSEMIQFYLEEVMPQAENQDPDIKAHVISLGENLNTLRLRLRRNHRFLPCENKSKAVEQVKNAFNKLQEKGIYKAMSEFDIFINYIEAYMMMKIRN
B11: MutSC1 (foldikine_10, single chain dimeric IL-10) (ligand)
chain: MTQSENSCTHFPGNLPNMLRDLRDAFSRVKTFFQMKDQLDNLLLKESLLEDFKGYLGCQALSEMIQFYLEEVMPQAENQDPDIKAHVNSLGENLKTLRLRLRRCHRFLPCENKSKAVEQVKNAFNKLQEKGIYKAMSEFDIFINYIEAYMTMNNGGLDYLPNMLRDLRDAFSRVKTFFQMKDQLDNLLLKESLLEDFKGYLGCQALSEMIQFYLEEVMPQAENQDPDIKAHVNSLGENLKTLRLRLRRNHRFLPCENKSKAVEQVKNAFNKLQEKGIYKAMSEFDIFINYIEAYMTMKIRN
B12: foldikine-22_1 (SCIL22_1) (ligand)
chain: GCRLDKSNFQQPYITNRTFMLAKEASLADNNTDVRLIGEKLFHGVSMSERCYLMKQVLNFTLEEVLFPQSDRFQPYMQEVVPFLARLSNRLSTCMPGGSKTHIQRNVQKLKDTVKKLGESGEIKAIGELDLLFMSLRNACIANGTLDKSNFQQPYITNRTFMLAKEASLADNNTDVRLIGEKLFHGVSMSERCYLMKQVLNFTLEEVLFPQSDRFQPYMQEVVPFLARLSNRLSRLELLPHIQRNVQKLKDTVKKLGESGEIKAIGELDLLFMSLRNACI
B13: foldikine-22_3 (SCIL22_3) (ligand)
chain: GVRLDKSNFQQPYITNRTFMLAKEASLADNNTDVRLIGEKLFHGVSMSERCYLMKQVLNFTLEEVLFPQSDRFQPYMQEVVPFLARLSNRLKKLMASSDHIQRNVQKLKDTVKKLGESGEIKAIGELDLLFMSLRNACIANGTLDKSNFQQPYITNRTFMLAKEASLADNNTDVRLIGEKLFHGVSMSERCYLMKQVLNFTLEEVLFPQSDRFQPYMQEVVPFLARLSNRLSRLELLPHIQRNVQKLKDTVKKLGESGEIKAIGELDLLFMSLRNACI
B14: 3dlq. Pdb sequence-Hydrophobic core stabilised protein (IL-22hydC) (ligand)
chain: ARLDKSNFQQPYITNRMFMLAKEMSLADNNTDVRLIGEKLFHGVSMSERCYLMKQILNFMLEEVLFPQSDRFQPYMQEVVPFLARLSNRLSTCHIEGDDLHIQRNVQKLKDTVKKLGELGEIKAIGELDLLFMSLRNACI
B15: mutantE_IL22 (A132Y, D43E, S45R, E77Y, T70I, K61W, S64M) (ligand)
chain: APISSHCREDRSNFQQPYITNRTFMLAWEAMLADNNIDVRLIGYKLFHGVSMSERCYLMKQVLNFTLEEVLFPQSDRFQPYMQEVVPFLYRLSNRLSTCHIEGDDLHIQRNVQKLKDTVKKLGESGEIKAIGELDLLFMSLRNACI
B16: mutantD_IL22 (K61W, S64M) (ligand)
chain: B15 chain with E9L, R11K, I37T, Y44E, Y90A

These binders were tested against IL-2 receptor on IL-2 reporter HEK blue cells (Human IL-2 & IL-15 Reporter Cells, hkb-il2bg) (assay: cell-based or functional assay).
IL-2 receptor on IL-2 reporter HEK blue cells (Human IL-2 & IL-15 Reporter Cells, hkb-il2bg), sequence (P14784 whole entry, chain 1 of 2): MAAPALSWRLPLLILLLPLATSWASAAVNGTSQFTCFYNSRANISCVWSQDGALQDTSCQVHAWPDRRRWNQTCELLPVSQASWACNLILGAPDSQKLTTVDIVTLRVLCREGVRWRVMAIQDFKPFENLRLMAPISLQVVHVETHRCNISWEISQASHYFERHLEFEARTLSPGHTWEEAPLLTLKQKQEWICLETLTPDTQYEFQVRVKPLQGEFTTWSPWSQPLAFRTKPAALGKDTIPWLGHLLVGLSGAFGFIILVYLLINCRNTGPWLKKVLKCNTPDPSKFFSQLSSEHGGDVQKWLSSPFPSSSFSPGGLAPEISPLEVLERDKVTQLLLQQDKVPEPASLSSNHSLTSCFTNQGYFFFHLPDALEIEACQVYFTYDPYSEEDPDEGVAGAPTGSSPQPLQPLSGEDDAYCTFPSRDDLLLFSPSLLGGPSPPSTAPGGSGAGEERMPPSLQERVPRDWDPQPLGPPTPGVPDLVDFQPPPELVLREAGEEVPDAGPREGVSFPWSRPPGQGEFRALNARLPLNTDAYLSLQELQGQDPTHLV
IL-2 receptor on IL-2 reporter HEK blue cells (Human IL-2 & IL-15 Reporter Cells, hkb-il2bg), sequence (P31785 whole entry, chain 2 of 2, further chain): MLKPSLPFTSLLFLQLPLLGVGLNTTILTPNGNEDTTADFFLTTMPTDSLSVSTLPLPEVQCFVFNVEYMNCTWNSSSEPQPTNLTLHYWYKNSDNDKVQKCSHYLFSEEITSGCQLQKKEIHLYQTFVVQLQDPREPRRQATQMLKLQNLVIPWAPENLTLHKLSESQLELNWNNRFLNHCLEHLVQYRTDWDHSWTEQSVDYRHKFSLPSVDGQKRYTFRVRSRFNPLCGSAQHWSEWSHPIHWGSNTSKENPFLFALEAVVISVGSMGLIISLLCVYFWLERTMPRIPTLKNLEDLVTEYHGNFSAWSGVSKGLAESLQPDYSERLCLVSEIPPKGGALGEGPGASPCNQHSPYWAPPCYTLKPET
B1 was tested, and the “EC-50 (IL-2 reporter HEK blue cells, SEAP, absorbance 630 nm)” value was 171 pM.
With B2 the “EC-50 (IL-2 reporter HEK blue cells, SEAP, absorbance 630 nm)” value was 184 pM.
With B3 the “EC-50 (IL-2 reporter HEK blue cells, SEAP, absorbance 630 nm)” value was 190 pM.
For B4, the “EC-50 (IL-2 reporter HEK blue cells, SEAP, absorbance 630 nm)” value was 211 pM.
With B5 the “EC-50 (IL-2 reporter HEK blue cells, SEAP, absorbance 630 nm)” value was 251 pM.

Each binder was assayed against T1, IL-10 receptors R1 and R2 on HEK-Blue … (assay: cell-based or functional assay).
B6 was tested, and the “Apparent Kd (M) average (HEK-Blue IL-10 SEAP reporter, absorbance 630 nm, saturation binding fit)” value (shortened to “Apparent Kd (M) average”) was 2.56e-10 M and the “Fold change-apparentKD (against IL-10 ORF)” value (“Fold change-apparentKD” below) was 0.773 fold.
In the case of B7, the “Apparent Kd (M) average” value is reported as 2.61e-11 M and the “Fold change-apparentKD” value is reported as 7.59 fold.
For B8, the “Apparent Kd (M) average” value was 1.45e-10 M and the “Fold change-apparentKD” value was 1.37 fold.
With B9 the “Apparent Kd (M) average” value was 6.45e-11 M and the “Fold change-apparentKD” value was 3.07 fold.
B10 was tested, and the “Apparent Kd (M) average” value was 1.2e-11 M and the “Fold change-apparentKD” value was 16.5 fold.
B11 was tested, and the “Apparent Kd (M) average” value was 1.9e-11 M and the “Fold change-apparentKD” value was 10.4 fold.

Each binder was assayed against T2, IL-22 receptors R1 and R2 on HEK-Blue … (assay: cell-based or functional assay).
With B12 the “apparent Kd in comparison with IL22 WT (HEK-Blue IL-22 reporter)” value was ~4 fold.
For B13, the “apparent Kd in comparison with IL22 WT (HEK-Blue IL-22 reporter)” value was ~4 fold.
With B14 the “Kd (apparent, HEK-Blue IL-22 reporter)” value was 0.0054 nM and the “gain in affinity against IL-22 WT (HEK-Blue IL-22 reporter)” value was 2 fold.
For B15, the “increase in affinity over wt” value was 10 fold.
For B16, the “increase in affinity over wt” value was 2 fold.

Source: patent US20260008830A1 (FUNDACI CENTRE DE REGULACI GEN MICA, published 2026)
